Source: article PMC3605701
Like-named read-outs stand apart in the source and are kept apart here.

Assays:
Assay in all cases: SEC
[1] = molecular target: endogenous Xenopus Cdt1/RLF-B (Xenopus (endogenous in egg extract)) (UniProt Q9I9A7)
[2] = molecular target: endogenous Xenopus Cdt1/RLF-B (Xenopus (endogenous in egg extract)) (UniProt Q9I9A7); remark: listed apart in the source
[3] = molecular target: endogenous Xenopus Cdt1/RLF-B (Xenopus (endogenous in egg extract)) (UniProt Q9I9A7); remark: listed apart in the source

Chain of UniProt Q9I9A7 (Q9I9A7 whole entry): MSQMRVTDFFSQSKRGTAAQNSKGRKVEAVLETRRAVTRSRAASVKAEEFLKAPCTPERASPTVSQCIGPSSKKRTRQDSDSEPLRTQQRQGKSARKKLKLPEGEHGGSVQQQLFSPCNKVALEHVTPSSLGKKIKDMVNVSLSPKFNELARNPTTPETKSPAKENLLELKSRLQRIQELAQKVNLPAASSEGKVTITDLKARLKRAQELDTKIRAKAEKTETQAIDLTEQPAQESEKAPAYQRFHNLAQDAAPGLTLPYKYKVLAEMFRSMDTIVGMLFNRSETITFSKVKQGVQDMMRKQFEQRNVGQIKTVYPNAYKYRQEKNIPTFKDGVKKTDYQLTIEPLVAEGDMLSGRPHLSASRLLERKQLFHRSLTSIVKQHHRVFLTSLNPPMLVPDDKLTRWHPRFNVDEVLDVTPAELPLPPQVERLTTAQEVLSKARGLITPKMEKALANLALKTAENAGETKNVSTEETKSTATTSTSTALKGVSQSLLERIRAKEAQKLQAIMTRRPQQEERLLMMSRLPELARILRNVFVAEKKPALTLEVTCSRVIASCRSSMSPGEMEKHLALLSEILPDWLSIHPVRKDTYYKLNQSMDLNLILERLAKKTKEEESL

Question: With “endogenous Xenopus geminin (from UniProt O93352 1-219) (natural protein)” as the substance, how does the percent of geminin co-fractionating with Cdt1/RLF-B [1] read?
Answer: Its percent of geminin co-fractionating with Cdt1/RLF-B is 61%.

Question: What about the percent of geminin in the smaller complex without Cdt1/RLF-B [1] of the same substance?
Answer: Its percent of geminin in the smaller complex without Cdt1/RLF-B is > 95%.

Question: And the percent of geminin co-fractionating with Cdt1/RLF-B [2]?
Answer: The percent of geminin co-fractionating with Cdt1/RLF-B was 24%.

Question: And the percent of geminin co-fractionating with Cdt1/RLF-B [3]?
Answer: Its percent of geminin co-fractionating with Cdt1/RLF-B is 45%.
